Key:
[1] = biological target: T1, MBP-cRAG1 (core RAG1);cRAG2 (core RAG2) (mouse?;mouse?, UniProt P15919;P21784 384-1040;1-383, |); experiment: EMSA; cRAG buffer; NBD EMSA: 10 mM Tris-HCl pH 7.5, 33 mM KCl, 5 mM CaCl2, 2 mM DTT, 0.1 mg/ml BSA, 6% glycerol, 15 min 30 C; cRAG EMSA: 22.5 mM MOPS-KOH pH 7.0, 20% DMSO, 2.2 mM; details: protein: recombinant;recombinant, tags: MBP;MBP, chain copies: 2;2
T1 sequence 1: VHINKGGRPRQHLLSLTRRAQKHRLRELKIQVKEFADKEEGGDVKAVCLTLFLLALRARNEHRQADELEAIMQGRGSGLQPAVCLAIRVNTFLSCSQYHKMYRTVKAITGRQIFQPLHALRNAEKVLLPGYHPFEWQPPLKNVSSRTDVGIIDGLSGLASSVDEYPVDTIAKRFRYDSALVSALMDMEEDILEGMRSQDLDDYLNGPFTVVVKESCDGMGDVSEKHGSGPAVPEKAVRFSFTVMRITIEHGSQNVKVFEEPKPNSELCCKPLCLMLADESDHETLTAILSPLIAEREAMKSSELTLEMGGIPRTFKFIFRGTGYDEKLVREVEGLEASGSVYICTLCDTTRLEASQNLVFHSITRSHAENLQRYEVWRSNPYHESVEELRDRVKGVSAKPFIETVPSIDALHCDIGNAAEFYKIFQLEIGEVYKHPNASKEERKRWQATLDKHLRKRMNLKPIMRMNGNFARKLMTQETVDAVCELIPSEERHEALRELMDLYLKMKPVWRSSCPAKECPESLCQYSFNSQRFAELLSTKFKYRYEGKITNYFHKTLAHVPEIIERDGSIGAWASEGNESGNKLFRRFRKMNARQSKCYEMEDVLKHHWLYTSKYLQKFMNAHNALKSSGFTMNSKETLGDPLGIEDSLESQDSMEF
T1 sequence 2: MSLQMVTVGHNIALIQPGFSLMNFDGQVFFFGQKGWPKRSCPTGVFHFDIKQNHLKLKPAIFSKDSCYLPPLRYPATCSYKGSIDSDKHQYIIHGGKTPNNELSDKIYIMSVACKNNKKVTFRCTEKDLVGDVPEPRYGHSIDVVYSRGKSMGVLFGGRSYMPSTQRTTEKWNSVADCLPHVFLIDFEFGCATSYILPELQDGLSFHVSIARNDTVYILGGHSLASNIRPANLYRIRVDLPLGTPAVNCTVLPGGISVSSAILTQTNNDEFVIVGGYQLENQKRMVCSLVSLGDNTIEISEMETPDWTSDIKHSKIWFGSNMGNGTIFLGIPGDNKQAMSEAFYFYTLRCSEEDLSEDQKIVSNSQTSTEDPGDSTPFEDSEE

[2] = biological target: T2, NBD (nonamer binding domain of RAG1) (mouse, UniProt P15919 384-461); experiment: EMSA; 5 mM Ca2+; NBD EMSA: 10 mM Tris-HCl pH 7.5, 33 mM KCl, 5 mM CaCl2, 2 mM DTT, 0.1 mg/ml BSA, 6% glycerol, 15 min 30 C; cRAG EMSA: 22.5 mM MOPS-KOH pH 7.0, 20% DMSO, 2.2 mM; details: protein: recombinant, tags: N-terminal His6 (pET28a)
T2 sequence: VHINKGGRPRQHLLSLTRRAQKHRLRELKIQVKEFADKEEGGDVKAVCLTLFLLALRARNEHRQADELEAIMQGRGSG

[3] = biological target: T2, NBD (nonamer binding domain of RAG1); experiment: EMSA; 5 mM Ca2+; printed as 'binding constant'; NBD EMSA: 10 mM Tris-HCl pH 7.5, 33 mM KCl, 5 mM CaCl2, 2 mM DTT, 0.1 mg/ml BSA, 6% glycerol, 15 min 30 C; cRAG EMSA: 22.5 mM MOPS-KOH pH 7.0, 20% DMSO, 2.2 mM; details: protein: recombinant; tags: N-terminal His6 (pET28a); label: 5' 32P on AKN3; 5' overhang 1 nt at both ends
[4] = biological target: T2, NBD (nonamer binding domain of RAG1); experiment: BLI; 1x PBS, 30 C, 1:1 fit; NBD EMSA: 10 mM Tris-HCl pH 7.5, 33 mM KCl, 5 mM CaCl2, 2 mM DTT, 0.1 mg/ml BSA, 6% glycerol, 15 min 30 C; cRAG EMSA: 22.5 mM MOPS-KOH pH 7.0, 20% DMSO, 2.2 mM; details: protein: recombinant; tags: N-terminal His6 (pET28a); label: 5' biotin
[5] = biological target: T2, NBD (nonamer binding domain of RAG1); experiment: EMSA; 5 mM Ca2+; no significant binding; NBD EMSA: 10 mM Tris-HCl pH 7.5, 33 mM KCl, 5 mM CaCl2, 2 mM DTT, 0.1 mg/ml BSA, 6% glycerol, 15 min 30 C; cRAG EMSA: 22.5 mM MOPS-KOH pH 7.0, 20% DMSO, 2.2 mM; details: protein: recombinant; tags: N-terminal His6 (pET28a); label: 5' 32P on DR59; 6 nt T/T bubble, blunt ends
[6] = label: 5' 32P on AKN1, 5' overhang 1 nt at both ends
[7] = label: 5' 32P, 6 nt C/C bubble, blunt ends
[8] = label: 5' 32P, 6 nt A/A bubble, blunt ends
[9] = label: 5' 32P, 6 nt T/T bubble, blunt ends
[10] = label: 5' 32P, 6 nt G/G bubble, blunt ends, intermolecular G4 in K+ buffer
[11] = label: 5' 32P on NM32, 6 nt T/T bubble, blunt ends

B1: 12RSS (I, AKN1/AKN2) (dsDNA)
DNA 1: GATCAGCTGATAGCTACCACAGTGCTACAGACTGGAACAAAAACCCTGCT
DNA 2: TAGCAGGGTTTTTGTTCCAGTCTGTAGCACTGTGGTAGCTATCAGCTGAT
binding result [1, 6]: binds
binding result [2, 6]: binds

B2: C/C bubble heteroduplex (AKN46/AKN20) (dsDNA)
DNA 1: GACCTGAGGGCGAGCCCCCCCCGAGTAACTTAACAG
DNA 2: CTGTTAAGTTACTCGCCCCCCGCTCGCCCTCAGGTC
binding result [1, 7]: binds
binding result [2, 7]: no binding

B3: A/A bubble heteroduplex (AKN18/AKN45) (dsDNA)
DNA 1: CTGTTAAGTTACTCGAAAAAAGCTCGCCCTCAGGTC
DNA 2: GACCTGAGGGCGAGCAAAAAACGAGTAACTTAACAG
binding result [1, 8]: no binding
binding result [2, 8]: no binding

B4: 23RSS (II, AKN3/AKN4) (dsDNA)
DNA 1: GATCAGCTGACAGTAGCACAGTGGTAGTACTCCACTCTCTGGCTGTACAAAAACCCTGCT
DNA 2: TAGCAGGGTTTTTGTACAGCCAGAGAGTGGAGTACTACCACTGTGCTACTGTCAGCTGAT
Kd [3]: 13.9 ± 3.3 µM

TTTTTTTTTTTTTTTTTTTTTTTTTTTTTTTTTTT (ssDNA) [biotinylated poly T 35]
Kd [4]: 0.45 µM

TTTTTTTTTTTTTTTTTTTTTTTTTTTTTTTTTTT (ssDNA) [ss poly T 35 (MS3)]
binding result ([1]; label: 5' 32P): no binding

B5: T/T bubble with scrambled nonamer (XXXVII, DR59/DR60) (dsDNA)
DNA 1: GACCTGAGGGCGAGCTTTTTTCGAGTAACTTAAGCGGAGGTCCTGCT
DNA 2: AGCAGGACCTCCGCTTAAGTTACTCGTTTTTTGCTCGCCCTCAGGTC
binding result [5]: no binding

B6: T/T bubble heteroduplex (AKN11/SCR252) (dsDNA)
DNA 1: GACCTGAGGGCGAGCTTTTTTCGAGTAACTTAACAG
DNA 2: CTGTTAAGTTACTCGTTTTTTGCTCGCCCTCAGGTC
binding result [1, 9]: binds
binding result [2, 9]: no binding

B7: G/G bubble heteroduplex (V, AKN47/AKN48) (dsDNA)
DNA 1: GACCTGAGGGCGAGCGGGGGGCGAGTAACTTAACAG
DNA 2: CTGTTAAGTTACTCGGGGGGGGCTCGCCCTCAGGTC
binding result [1, 10]: no binding
binding result [2, 10]: no binding

B8: T/T bubble with nonamer (VII, NM32/NM33) (dsDNA)
DNA 1: GACCTGAGGGCGAGCTTTTTTCGAGTAACTTAAACAAAAACCCTGCT
DNA 2: AGCAGGGTTTTTGTTTAAGTTACTCGTTTTTTGCTCGCCCTCAGGTC
binding result [1, 11]: binds
binding result [2, 11]: binds

Reference: PMC4705477, “Biochemical Characterization of Nonamer Binding Domain of RAG1 Reveals its Thymine Preference with Respect to Length and Position”
